Columns and labels:
[1] = In vitro release of EPO from 3.4KL5 discs, size exclusion chromatography (Example 14); assay type: physicochemical
Experimental: To a sterile 20 mL vial were added: 0.0330 g of TEOA (neat), 1.0076 g of 3.4KL5, 0.0598 g of 1000 ppm eosin (in PBS, pH 7.0), and 2.32 g solution of EPO (10,000 units/mL). No vinyl pyrrolidone, or other polymerizable monovinyl monomer was added. The resulting mixture was mixed and polymerized by light (ILC Technology, Inc. Xenon Light Source with Fiber Optics).
The rate of in vitro release was conducted by averaging the release from 3 discs containing an average of 2500 units per disc. The release was conducted in 4 mL of PBS (pH 7.4) at 39° C. The release media was exchanged daily. Analysis was done by size exclusion chromatography. (HPLC: model 2690 by waters, Column: SEC 250 by BioRad, mobile phase: 0.8M TFA in 60% acetonitrile @1.5 mL/min, detector wavelength: 220 nm).

male Sprague-Dawley rats = test: Fraction of reticulocytes in rats given EPO (Example 11); assay type: in vivo, rat; settings: day 5, Acridine Orange, flow cytometry
Experimental: The controlled delivery of active human erythropoeitin (EPO) was confirmed in male Sprague-Dawley rats purchased from Taconic Labs (Germantown, N.Y.). Hydrogel devices were manufactured to contain 3000 Units per device, as described in Example 14. These devices were prepared in the absence of vinyl pyrrolidone, and other polymerizable monovinyl monomers. One of these devices was implanted in each of 3 rats. Three other rats received a subcutaneous injection of EPO (1000 Units) daily for 3 days. A control group of 3 rats received no treatment.
On day 5 after implantation of the device or the start of the subcutaneous injections, venous blood samples were obtained from each rat and stored in EDTA. The fraction of reticulocytes (immature red blood cells) was determined after staining with Acridine Orange by automated flow cytometry.

[2] = In vitro short term release of insulin from 3.4KL5, SEC-HPLC (Example 6); assay type: physicochemical; settings: Zn-Insulin 47% loading in 3.4KL5
Experimental: Device Preparation: A degradable macromer (3.4KL5) was used. […] The protein was loaded at a loading of 47%, based on dry weight. Three samples were prepared.
The samples were prepared as described in Example 4. The samples were analyzed by SEC-HPLC for the detection of monomers, dimers and soluble aggregates, using the conditions described in Example 5.

[3] = In vitro release of insulin from 3.4KL5 particles, size exclusion chromatography (Example 15); assay type: physicochemical
Experimental: No vinyl pyrrolidone, or other polymerizable monovinyl monomer was added. The resulting mixture was mixed and placed into 10 mL glass tubes. The tubes were exposed to xenon light (ILC Technology, Inc. Xenon Light Source with Fiber Optics) for 10 seconds. The semi-cured hydrogel was pushed out of the glass tube and further polymerized for 3.5 minutes. The cured hydrogel rods were placed in 15 mL of heptane and ground using a homogenizer (Silverson L4RT-A) for 30 seconds @5000 rpm, followed by 30 seconds @3000 rpm. The heptane was decanted, and the powder was dried under nitrogen.
Particles (16 mg) were placed in a porous (0.8 mm) “release-bag” (described in Example 5). The in vitro release was calculated by averaging the release from 2 release bags. The release-bag was placed into 2 mL of PBS (pH 7.4) at 39° C. The release media was exchanged every 15 minutes for the first 2 hours and every 30 minutes thereafter. Analysis was done by size exclusion chromatography. (HPLC: model 2690 by waters, Column: SEC 250 by BioRad, mobile phase: 0.8M TFA in 60% acetonitrile @1.5 mL/min, detector wavelength: 220 nm).

hypophysectomized rats [4] = test: Growth of hypophysectomized rats given hGH (Example 13); assay type: in vivo, rat; settings: hypophysectomized female rats; initial results
Description: The controlled delivery of active human growth hormone (hGH, MW 20 Kd) was confirmed in the hypophysectomized rat model. Hypophysectomized female rats purchased from Taconic Labs (Germantown, N.Y.) were weighed each morning. Prior to the initiation of the study the rats were held 7 days to confirm lack of growth. The rats were divided into 3 groups of equal mean weights. Group 1 remained untreated and served as a negative control. Group 2 received an implant of hGH in a hydrogel made of a 3:1 blend of 3.4KL5 and 3.4KC6 (each device contained approximately 1 mg of hGH). The rats in Group 3 were injected with 100 μg hGH subcutaneously each day for the duration of the study.

hypophysectomized rats [5] = test: Growth of hypophysectomized rats given bST (Example 9); assay type: in vivo, rat; settings: hypophysectomized female rats, 118±1.5 grams on day 1; mean±sem
Description: The controlled delivery of active bovine somatotropin (MW 20 Kd) was confirmed in the hypophysectomized rat model. Hypophysectomized female rats were purchased from Taconic Labs (Germantown, N.Y.). The rats were weighed each morning. Prior to the initiation of the study, the rats were held 7 days to confirm lack of growth. On day 1 of the study the rats weighed 118±1.5 grams (mean±sem, n=18). The rats were divided into 3 groups of equal mean weights. Group 1 remained untreated and served as a negative control. Group 2 received an implant of bST in a hydrogel made of a blend of 3:1 of 3.4KL5 and PEGDA (each device contained 0.9 to 1.1 mg of bST). The rats in Group 3 were injected with 100 μg bST subcutaneously each day for the duration of the study.

[6] = In vitro release of bST from 3.4KL5/PEG-diacrylate blend discs, SEC-HPLC (Example 5); assay type: physicochemical
Experimental: Device Preparation: A blend of a degradable macromer (3.4KL5) and a non-degradable macromer (PEG-diacrylate, MW 3,400) was used. The protein used was ZnbST (Monsanto/Protiva). The protein was loaded at a loading of 20%, based on dry weight. 3 samples were prepared, as follows.
Sample preparation: 20 μL of the bST-precursor solution were prepared, as described in Example 1. The mixture was pipetted using a positive displacement pipette with a silanized glass tip. The solution was placed onto a silanized glass slide. Using pieces of plastic sheets with thicknesses of about 0.4±0.2 mm as spacers, another silanized glass slide was placed on top and held firmly in place using binder clips. A light source (ILC Technology, Inc. Xenon Light Source with Fiber Optics) was adjusted to about a 5-cm distance from the glass slide using clamps and a stand. The center of the disc was illuminated; both sides of the disc were illuminated, for two minutes each.
The clips, the glass slide, and the spacers were carefully removed. With a spatula and tweezers, the discs were removed and weighed on a clean, tared silanized glass slide. The disc was placed into a heat-sealed membrane bag, as described in more detail below. One 20 μL disc was placed in each bag. The bag was heat-sealed, placed in 2.0 mL of phosphate buffer release media (0.01% NaN3, 0.05M PBS, pH 7.4), placed on an orbital shaker turning at 100 rpm, and incubated at 39° C.
For each time point, the bag was placed into fresh 2.0 mL of PBS Release Media. Samples were collected for analysis every day for as long as the bST was being released.
Membrane bags were prepared as follows. Membrane sheets were cut into pieces of approximately 7×2.5 cm. The sheets were folded in half. Using a Bunsen burner or a propane torch, a spatula was heated until it became red. The edges of the sheets were aligned, and the side of the membrane was cut with the […] to seal the sides. […]
The samples were analyzed daily by SEC-HPLC. Monomers, dimers, and soluble aggregates could be detected using this method. […]

[7] = Release of bST from cylindrical hydrogel devices of large and small diameter, HPLC (Example 10); assay type: physicochemical
Experimental: A macromer mixture containing approximately 30% (w/w) of bST was prepared using the methods described above. The macromer/protein mixture was put in a glass cylinder having an internal diameter of either 1.12 mm or 0.61 mm. The system was exposed to light for 20 seconds, removed from the glass cylinder, placed on aluminum foil, and exposed to light for an additional 3.5 minutes. The resulting hydrogel cylinders were placed in 1 mL of release media (PBS, pH 7.4), and the released bST was monitored by HPLC. […] In addition, the characteristics of the bST release indicated degradation/swelling of a controlled system. […] For n=0.5, the drug release follows a Fickian-diffusion mechanism. For n>0.5, non-Fickian behavior was observed.
In a different analysis based only on diffusion, the flux from the cylinder was analyzed using the following Fickian equation: J=D*A*ΔC/ΔX, where J is the flux; D is the diffusion constant; A is the surface area; C is the concentration in the cylinder; and […] from the center. In this analysis the flux should differ dramatically whether the release occurred from either a large or a small diameter cylinder. Theoretical analysis predicted that under Fickian diffusion, when the smaller diameter cylinder released 20%, the larger diameter cylinder would release 7% of the incorporated drug. […]

[8] = In vitro release of ZnbST from 50:50 blend of 3.4KL5 and 3.4KC6, SEC-HPLC (Example 7); assay type: physicochemical; settings: 25% loading in 50:50 blend of 3.4KL5 and 3.4KC6
Experimental: Devices were prepared as describe above. Macromers containing a blend of a soluble macromer (3.4KL5) and an insoluble macromer (3.4KC6) were used in a ratio of 50:50. The protein used was ZnbST (Protiva/Monsanto); it was loaded at a loading of 25%, based on dry weight. Six samples were prepared. The samples were analyzed by SEC-HPLC, as described above. The samples were monitored for the presence of monomers, dimers and soluble aggregates.

[9] = In vitro release of ZnbST from 75:25 blend of 3.4KL5 and 3.4KC6, SEC-HPLC (Example 8); assay type: physicochemical
Experimental: Devices were prepared as describe above. A blend of a soluble macromer (3.4KL5) and an insoluble macromer (3.4KC6) were used, in a ratio of 75:25. The protein ZnbST (Protiva/Monsanto) was loaded at a loading of 25%, based on dry weight. Six samples were prepared. The samples were analyzed by SEC-HPLC to detect monomers, dimers, and soluble aggregates, as described above.

## EPO: human erythropoeitin
[1]; after 120 hours
  EPO still being released: over 500 units
[1]; average 2500 units per disc, PBS pH 7.4, 39° C.
  period over which EPO was released: at least 120 hours
Male Sprague-Dawley rats
  reticulocytes: about 19%

## Insulin: Zn-Insulin / insulin purchased from Sigma, loaded into 3.4KL5
[2]; SEC-HPLC
  dimers or soluble aggregates: no dimers or soluble aggregates were detected
[2]; within 24 hours
  release achieved (complete release): 100%
[3]; 3.4KL5 particles (16 mg) in release-bag, PBS pH 7.4, 39° C.
  period over which insulin was released: 90 min
[3]; after 90 minutes, 3.4KL5 particles
  insulin still being released: 100 µg

## hGH: human growth hormone (MW 20 Kd)
Hypophysectomized rats [4]
  growth of the rats: exhibited continued growth

B1: bovine somatotropin (protein, UniProt P01246 27-217, looked up)
Somatotropin: AFPAMSLSGLFANAVLRAQHLHQLAADTFKEFERTYIPEGQRYSIQNTQVAFCFSETIPAPTGKNEAQQKSDLELLRISLLLIQSWLGPLQFLSRVFTNSLVFGTSDRVYEKLKDLEEGILALMRELEDGTPRAGQILKQTYDKFDTNMRSDDALLKNYGLLSCFRKDLHKTETYLRVMKCRRFGEASCAF
notes: bovine somatotropin (MW 20 Kd)
Hypophysectomized rats [5]
  body weight after 11 days: 151±4 grams
[6]; ZnbST 20% loading in blend of 3.4KL5 and PEG-diacrylate
  initial release on each of the first two days: 12%
[6]; ZnbST 20% loading in blend of 3.4KL5 and PEG-diacrylate MW 3,400, PBS pH 7.4, 39° C.
  period over which bST was released: 14 days
[6]; ZnbST 20% loading in blend of 3.4KL5 and PEG-diacrylate, SEC-HPLC
  dimers or soluble aggregates in the release media: No detectable levels
[7]; both cylinders, n>0.5 = non-Fickian
  exponent n characteristic of the mode of transport: 2
[7]; when the smaller diameter cylinder released 20%
  incorporated drug released by the larger diameter cylinder (observed): 16%

B2: ZnbST: ZnbST protein (Monsanto/Protiva) loaded into macromer hydrogels (protein, UniProt P01246 27-217, looked up)
Somatotropin: B1 Somatotropin
modifications: zinc complex
notes: ZnbST protein (Monsanto/Protiva) loaded into macromer hydrogels
[8]
  initial burst release: no initial burst release was observed
  period over which ZnbST was released: 20 days
[8]; SEC-HPLC
  concentrations of dimers or soluble aggregates: less than 2%
[9]; 25% loading in 75:25 blend of 3.4KL5 and 3.4KC6
  period over which ZnbST was released: 17 days
[9]; 75:25 blend of 3.4KL5 and 3.4KC6, SEC-HPLC
  dimer or aggregate released: Very little
[9]; within 13 days of release, 75:25 blend of 3.4KL5 and 3.4KC6
  incorporated ZnbST released: 90%
